Consider three molecules from paper PMC11984883, “ACAT1‐Mediated ME2 Acetylation Drives Chemoresistance in Ovarian Cancer by Linking Glutaminolysis to Lactate Production” (Advanced Science, 2025).

The target in experiment [1] is T1, ME2 (malic enzyme 2) (Homo sapiens, UniProt P23368).
T1 construct: for the malate assay purified from overexpressing 293T cells treated with cisplatin
Briefly: […]-pyruvate binding to Flag-bead-bound ME2, scintillation counting.

Experiment [2] addresses T2, ME2-flag recombinant protein (WT) (UniProt P23368 19-584).
T2 construct: malic enzyme 2 (ME2), wild type; If it was made in mammalian cells, the mitochondrial transit peptide is probably removed (surmise); also called purified ME2-flag protein; ME2-flag WT; not shown: Flag, C-terminal, kept
Briefly: pull-down; ME2-flag recombinant protein bound to Flag beads, incubated with recombinant ACAT1 or SIRT4 with or without pyruvate (increasing concentrations) for 20 min at room temperature, unbound protein washed out, western blot. Conditions: both partners purified. On the technique in general: Immunoblotting shows a protein as a band on a membrane.

The target in experiment [3] is T3, ME2-flag R511A recombinant protein (UniProt P23368 19-584, R511A).
T3 construct: Same construct as m7, with the mutation; also called ME2 R511A; source: recombinant, purified; not shown: Flag, C-terminal, kept
Described as above. Conditions: both partners purified.

T2 sequence (P23368 19-584): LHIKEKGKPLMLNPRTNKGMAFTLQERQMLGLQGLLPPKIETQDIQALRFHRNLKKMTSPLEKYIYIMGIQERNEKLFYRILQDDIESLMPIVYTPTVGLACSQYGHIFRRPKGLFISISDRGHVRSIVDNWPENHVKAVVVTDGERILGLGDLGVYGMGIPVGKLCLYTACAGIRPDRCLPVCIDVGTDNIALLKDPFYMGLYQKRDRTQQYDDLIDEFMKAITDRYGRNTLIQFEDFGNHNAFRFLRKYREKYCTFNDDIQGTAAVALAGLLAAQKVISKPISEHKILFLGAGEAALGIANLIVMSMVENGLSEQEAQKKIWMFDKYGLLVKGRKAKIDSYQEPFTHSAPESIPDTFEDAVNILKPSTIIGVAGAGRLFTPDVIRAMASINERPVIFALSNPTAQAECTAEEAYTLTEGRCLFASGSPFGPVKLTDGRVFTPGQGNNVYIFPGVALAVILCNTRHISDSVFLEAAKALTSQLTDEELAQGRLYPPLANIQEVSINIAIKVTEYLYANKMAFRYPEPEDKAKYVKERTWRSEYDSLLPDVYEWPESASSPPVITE
T3 sequence (P23368 19-584 R511A): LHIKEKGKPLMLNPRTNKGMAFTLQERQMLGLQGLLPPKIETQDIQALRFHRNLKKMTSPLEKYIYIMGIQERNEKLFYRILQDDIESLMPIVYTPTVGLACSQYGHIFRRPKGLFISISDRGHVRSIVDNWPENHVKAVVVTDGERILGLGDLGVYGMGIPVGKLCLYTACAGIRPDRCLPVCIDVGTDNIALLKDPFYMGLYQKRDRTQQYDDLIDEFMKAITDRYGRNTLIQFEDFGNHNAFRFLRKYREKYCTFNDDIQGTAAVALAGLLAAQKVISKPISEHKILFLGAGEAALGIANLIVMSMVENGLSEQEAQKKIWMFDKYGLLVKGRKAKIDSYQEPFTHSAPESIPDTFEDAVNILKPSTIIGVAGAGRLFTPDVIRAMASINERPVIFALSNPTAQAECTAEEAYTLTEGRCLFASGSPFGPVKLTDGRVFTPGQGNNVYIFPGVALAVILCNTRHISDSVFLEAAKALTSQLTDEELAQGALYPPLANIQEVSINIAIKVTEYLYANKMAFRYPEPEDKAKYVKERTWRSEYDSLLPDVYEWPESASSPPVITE
T1 sequence (P23368 19-584): as the sequence (P23368 19-584) above

Regarding `CC(=O)C(=O)O` [pyruvate], in experiment [1], the equilibrium dissociation constant (Kd) was roughly 6.17 µM.

B1: recombinant ACAT1 (enzyme, UniProt P24752 34-427, looked up)
chain: VSKPTLKEVVIVSATRTPIGSFLGSLSLLPATKLGSIAIQGAIEKAGIPKEEVKEAYMGNVLQGGEGQAPTRQAVLGAGLPISTPCTTINKVCASGMKAIMMASQSLMCGHQDVMVAGGMESMSNVPYVMNRGSTPYGGVKLEDLIVKDGLTDVYNKIHMGSCAENTAKKLNIARNEQDAYAINSYTRSKAAWEAGKFGNEVIPVTVTVKGQPDVVVKEDEEYKRVDFSKVPKLKTVFQKENGTVTAANASTLNDGAAALVLMTADAAKRLNVTPLARIVAFADAAVEPIDFPIAPVYAASMVLKDVGLKKEDIAMWEVNEAFSLVVLANIKMLEIDPQKVNINGGAVSLGHPIGMSGARIVGHLTHALKQGEYGLASICNGGGGASAMLIQKL
notes: acetyl-CoA acetyltransferase 1 (ACAT1), recombinant protein; also called purified, recombinant ACAT1; source: recombinant, purified
Consider B1, for which the binding result in experiment [2] and in experiment [3] was “binds” throughout.

B2: recombinant SIRT4 (enzyme, UniProt Q9Y6E7 29-314, looked up)
chain: IGLFVPASPPLDPEKVKELQRFITLSKRLLVMTGAGISTESGIPDYRSEKVGLYARTDRRPIQHGDFVRSAPIRQRYWARNFVGWPQFSSHQPNPAHWALSTWEKLGKLYWLVTQNVDALHTKAGSRRLTELHGCMDRVLCLDCGEQTPRGVLQERFQVLNPTWSAEAHGLAPDGDVFLSEEQVRSFQVPTCVQCGGHLKPDVVFFGDTVNPDKVDFVHKRVKEADSLLVVGSSLQVYSGYRFILTAWEKKLPIAILNIGPTRSDDLACLKLNSRCGELLPLIDPC
notes: SIRT4, recombinant protein; also called purified, recombinant SIRT4; source: recombinant, purified
For B2, the binding result in experiment [2] and in experiment [3] was “binds” in each case.

For orientation: Kd means the constant that tells how readily two partners part at equilibrium. Lower therefore signals higher affinity.
